The results in this text go back to patent US20220235118A1 (IMMUNOME, published 2022).

Test [1] deals with T1, SARS-CoV-2 Spike receptor binding domain (RBD), reference (USA/WA_CDC-WA1/2020) (SARS-CoV-2, UniProt P0DTC2 319-591). Briefly: SPR, antibody as ligand, RBD as analyte. In general terms: SPR reads the build-up and loss of mass on a sensor chip optically.
Test [2] addresses T2, SARS-CoV-2 Spike S1 domain, reference (SARS-CoV-2, UniProt P0DTC2 16-685).
T2 construct: domain: S1; also called S1 subunit
Briefly: HTRF, soluble S1 construct. On the technique in general: Time-resolved FRET reads energy transfer from a long-lived donor to a nearby acceptor.

The target of test [3] is T3, SARS-CoV-2 Spike, full-length S (FL, trimer-stabilized), reference (WA1/2020) (SARS-CoV-2, UniProt P0DTC2 14-1208).
T3 construct: also called Spike trimer; intact trimer
Briefly: SPR, antibody as ligand, Trimer as analyte.

Test [4] deals with T1, SARS-CoV-2 Spike receptor binding …. Briefly: HTRF, soluble RBD construct.

B1: PR200_00622 (antibody, V domains shown)
VH: QVQLVESGGGVVQPGRSLRLSCTASGFTFSTYGMHWVRQAPGKGLEWVAVISYDGSSKHYAESVKGRFTISRDNSNNTLYLQMNRLRAEDTAVYYCARDGQPPGWGNYFDYWGQGTLVTVAS
VL: SYVLTQPPSVSVAPGKTARITCGGNGIGSKSVYWYQQKPGQAPEVVVYDDSDRPSGIPERFSGSNSGNTATLTISRVEAGDEADYYCQVWDSSSDPWVFGGGTKLTVL
notes: also called IMM20253; PR200_00253
In general, Kd refers to the constant that tells how readily two partners part at equilibrium. One may read the koff as the first-order rate constant of dissociation. For orientation: kon means the second-order rate constant of association. As a reminder, the EC50 is the concentration giving half of the maximal effect. Lower therefore signals higher potency in that assay. B1: in test [1], the Kd was 157 pM, the off-rate (koff) stood at 0.000218 s⁻¹ and the kon came out at 1.39e+06 M⁻¹ s⁻¹. For the same molecule, the midpoint of the response in test [2], the EC50, lay at 49.1 pM. Besides, in test [3], the dissociation constant (Kd) turned out to be 1440 pM, the off-rate (koff) came out at 0.000117 s⁻¹ and the kon was 81300 M⁻¹ s⁻¹. In addition, it took 52.7 pM to reach a half-maximal effect in test [4] (EC50).

B2: PR194_00232 (antibody, V domains shown)
VH: EVQLVESGGGLVQPGGSLRLSCSASGFTVSSNYMSWVRQAPRKGLEWVSVIYAGGSTFYADSVKGRFTISRDNSKNTLLLQMNSLRAEDTAVYYCARDRGGYLDYWGQGTLVTVSS
VL: DIQMTQSPSSLSASVGDRVTITCRASQGISNYLAWYQQKPGKVPKLLIYAASTLQSGVPSRFSGSGSGTDFTLTISSLQPEDVATYYCQKYNSAPGLTFGGGTKVEIK
notes: also called IMM20190; PR194_00190
In test [1], B2 yielded a dissociation constant Kd of 1870 pM, an off-rate (koff) of 0.000376 s⁻¹ and a kon of 202000 M⁻¹ s⁻¹. Also, a half-maximal response in test [2] (EC50) required 56 pM. In test [3], the Kd turned out to be 6590 pM, the off-rate (koff) was 0.000195 s⁻¹ and the on-rate (kon) is 29500 M⁻¹ s⁻¹. In test [4], this molecule yielded an EC50 of 68.2 pM.

B3: PR193_00018 (antibody, V domains shown)
VH: EVQLVESGGGLVQPGGSLRLSCSASGFTFSSFWMSWVRQAPGKGLEWVATIREDGSEKYYVDSVKGRFSISRDNAKNSLYLQMNSLRAEDTAVYYCARSKWLRGSFDYWGQGTLVTVSS
VL: NFMLTQPHSVSESPGKTVTISCTRRSGSIASNYVQWYQQRPGSAPTTVIYEDNQRPSGVPDRFSGSIDSSSNSASLTISGLQTEDEADYYCQSYDSSNPPGASWVFGGGTKLTVL
notes: also called IMM20184; IMM200184
Turning to B3, the Kd in test [1] is 22000 pM; in test [3] it was 7350 pM. Moreover, the koff in test [1] came to 0.00131 s⁻¹; in test [3], 0.000229 s⁻¹. In addition, the values for the EC50 in test [2] and in test [4] were 31.8 pM and 44.8 pM, respectively. For the same molecule, the association rate constant (kon) in test [3] is 31200 M⁻¹ s⁻¹.
